Molecular target: PU.1 (UniProt P17433 1-272)
Assay: EMSA; anti-PU.1 Ab control; EMSA in 5% acrylamide gels with fluorescence detection; buffer, salt, pH and temperature not in the material
Settings: protein: ivt; label: FLO (fluorescent)

Row | Binder | binding result
1 | Site 2 probe, mouse Ccl22 promoter (dsDNA) DNA 1: GTGGGACTTCTTCTTTCAG DNA 2: CTGAAAGAAGAAGTCCCAC | binds
2 | Site 1&2 probe, mouse Ccl22 promoter (dsDNA) DNA 1: CGCTGGGGGAAGTGGGACTTCTTCTTTCAG DNA 2: CTGAAAGAAGAAGTCCCACTTCCCCCAGCG | binds
3 | Site 1 probe, mouse Ccl22 promoter (dsDNA) DNA 1: GGCTGGGGGAAGTGGGAC DNA 2: GTCCCACTTCCCCCAGCC | binds
